# Experimental data taken from patent US20200181677A1, “SCREENING SYSTEM AND METHODS FOR IDENTIFYING ENZYME SUBSTRATES AND MODULATORS OF ENZYME ACTIVITY” (Regents of the University of Minnesota, priority 2017, published 2020).
# “Also recorded” adds a separate entry of the source.
# How the values were obtained:
# PKCα catalytic domain [1] = target: T1, PKCα catalytic domain (Homo sapiens, UniProt P17252); assay: Kinase activity assay (ATP consumption, Kinase-Glo Max); assay type: biochemical; conditions: for Kinase activity toward the peptide substrate, in words: 500 μM peptide, isolated catalytic domain
# T1 construct: All activity assays were performed with 50 nM isolated catalytic domain in PKC Buffer; fused substrate peptide with the fluorophore next to it (N, cleaved yes); second fluorophore of the mCerulean/mCitrine pair (next to the catalytic domain) (N); FLAG; made in house; host or cells: Sf9 insect cells (pBiex1), then on-resin TEV cleavage
# Procedure: All activity assays were performed with 50 nM isolated catalytic domain in PKC Buffer at 21-22° C. for 2-6 minutes. Experiments comparing the basal activity of different FRET sensors (FIG. 5A) were performed with 50 μM MBP peptide from GenScript. For all other activity experiments (FIGS. 3F, 4B, 5B, and 6B), the final peptide concentration was 500 μM. Activity was measured by monitoring ATP consumption with the Kinase-Glo Max Luminescence Assay Kit (Promega; Madison, Wis.). End-point luminescence was measured in white, 96-well plates using a M5e Spectramax spectrophotometer (Molecular Devices; San Jose, Calif.). For each experimental condition, ≥2 independent experiments were performed for ≥3 protein preparations (N≥6).
# Kinase specific activity was inferred from the ATP consumed in phosphorylation reactions using the KINASE-GLO® Max Luminescence Assay Kit (Promega; Madison, Wis.). ATP depletion was monitored with the KINASE-GLO® Reagent, which uses luciferin, oxygen, and ATP as substrates in a reaction that produces oxyluciferin and light. The luminescent signal is linearly proportional to the amount of ATP remaining following the phosphorylation reaction.
# Activity assays were performed using the catalytic domain (25-75 nM) and 500-μM peptide in PKC Buffer. Reactions were initiated by the addition of 250 μM ATP to a total reaction volume of 80 μL in U-bottom, white 96-well plates. Following a 3 minute incubation at 22° C., reactions were quenched and subsequent steps were performed as per instructions from the kit provider. End-point luminescence was measured in a FLEXSTATION® 3 plate reader (Molecular Devices). […] For each experimental condition, ≥2 independent measurements were performed for ≥3 protein preparations (N≥6).
# PKCα catalytic domain [2] = target: T1, PKCα catalytic domain; assay: Steady-state FRET measurements of peptide sensors; assay type: binding; conditions: for Peptide interaction with the catalytic domain on addition of nucleotide (ΔFRET): 100 μM compound, alanine-substituted peptide sensors; for Binding strength of the peptide to the catalytic domain (steady-state FRET ratio), in words: 10 nm ER/K linker sensors
# Procedure: All experiments were performed with 30-50 nM protein in PKC Buffer at 21-22° C. Samples were prepared in tubes pre-coated with 0.1 mg/mL BSA to limit protein sticking to tube walls. Protein samples were excited at 430 nm (mCer) with an 8-nm band pass, and emission monitored from 450 to 650 nm. The FRET ratio was calculated from the ratio of the emission for mCit (525 nm) to mCer (475 nm). Final concentrations of 100 μM ATP, 100 μM ADP, 100 μM Sangivamycin, or BimI were added as indicated. For each experimental condition, ≥3 independent protein batches were used and at least two replicates were measured for each independent experiment (N≥3).
# Protein-protein interactions in live cells using SPASM FRET sensors have been extensively monitored as described elsewhere (Sivaramakrishnan and Spudich, supra; Swanson et al., supra; and Malik et al., J Biol. Chem. 288:17167-17178, 2013). FRET measurements provide a direct measure of the binding strength of the substrate peptides to the kinase catalytic domain (Sivaramakrishnan and Spudich, supra; and Sommese et al., J. Biol. Chem. 292:2873-2880, 2017). Before each experiment, purified sensors were centrifuged (17645 g, 4° C.) to remove any insoluble protein. All experiments were performed with 50 nM protein in PKC Buffer at 21-22° C. Samples were prepared in tubes pre-coated with BSA (0.1 mg/ml) to limit protein loss through adsorption to tube walls. FRET measurements were performed using FluoroMax-4 fluorometer (Horiba Scientific). Sensors were loaded in a quartz cuvette (1 cm path length) and excited at 430 nm with an 8-nm band pass, and emission was monitored (4-nm band pass) from 450 to 650 nm. The FRET ratio was calculated from the ratio of the emission for mCitrine (525 nm) to mCerulean (475 nm). For each experimental condition, ≥2 experimental replicates were measured for ≥3 independent protein batches (N≥6).
# PKCα catalytic domain [3] = target: T1, PKCα catalytic domain; assay: Time-resolved fluorescence decay (TCSPC) of peptide-catalytic domain FRET sensors; assay type: binding; conditions: means ± SEM, N = 3; for Mol Fraction Bound / Mol Fraction Unbound: eGFP/mCherry sensors, PKC Buffer containing 100 μM ATP; for Mol Fraction Bound: A2/(A1+A2); for τ2: second lifetime of bi-exponential fit, τ1 fixed to donor linker control (2.56 ± 0.01 ns)
# Procedure: FIG. 4A is a graph plotting a comparison between steady-state FRET and fractional binding for four alanine-containing peptide sensors. For fractional binding, fluorescence decay single photon counting data was fit to I(t)=A1e^−t/τ^1+A2e^−t/τ^2, where τ1 was set to the lifetime of a 10 nm ER/K linker control (see, TABLE 1). The mol fraction of the bound state(s) was calculated as A2/(A1+A2).
# Time-resolved fluorescence decay measurements were taken by single photon counting (SPC-130-EM, Becker & Hickl) using a 485 nm sub-nanosecond pulse diode laser (PicoQuant), a 519 bandpass filter, and a PMH-100 photomultiplier module (Photonics Solutions) (Autry et al., J. Biol. Chem. 287:39070-39082, 2012). Sensors contained the eGFP and mCherry FRET pair, and all experiments were performed with 50-100 nM protein in PKC Buffer containing 100 μM ATP and 0.1 mg/mL BSA. Data were fit to the second exponential decay, I(t)=A1e^−t/τ^1+A2e^−t/τ^2, where τ1 was set to the lifetime of a 10 nm ER/K linker control. Each experimental condition was collected from three independent protein batches (N=3).
# Time-correlated single photon counting (TCSPC) was used to test whether changes in steady-state FRET reflect changes in fractional binding of the peptide to the catalytic domain (FIG. 1). TCSPC is a method for measuring time-resolved fluorescence that provides information on complex decay kinetics and population states (Lakowicz, Principles of Fluorescence Spectroscopy, 3rd ed., Springer, New York, 2006). Using this method, the relative population of interacting to non-interacting species was measured for four peptide sensors displaying a range of steady-state FRET ratios (FIG. 2).
compound,measurement,setting,value
"12: peptide substrate RRFKRQGSFFYFF, SEQ ID NO:26, Optimized PKCζ Sub. [Peptide 12]","Kinase activity toward the peptide substrate, in words",PKCα catalytic domain [1]; listed as p12,lowest kinase activity; also recorded: poor activity
same,Effect on catalytic turnover with low affinity-high activity peptide #6,PKCα catalytic domain [1]; equimolar peptides #6 and #12,essentially inhibited
"NC(=O)c1cn([C@@H]2O[C@H](CO)[C@@H](O)[C@H]2O)c2ncnc(N)c12 [Sangivamycin, reference compound]",Peptide interaction with the catalytic domain on addition of nucleotide (ΔFRET),PKCα catalytic domain [2],also occurred
"CN(C)CCCn1cc(C2=C(c3c[nH]c4ccccc34)C(=O)NC2=O)c2ccccc21 [BimI, Bisindolylmaleimide I, reference compound]",Effect on the ATP-dependent substrate-kinase interaction (steady-state FRET),"PKCα catalytic domain [2]; peptide #8 and #11 sensors, 100 μM ATP, BimI titration",abrogated
"6: peptide substrate ASQKRPSQRH, SEQ ID NO:14, from Myelin Basic Protein; Ala-substituted in FRET sensors [Peptide 6]",Mol Fraction Bound,PKCα catalytic domain [3],0.08 ± 0.01
same,Mol Fraction Unbound,PKCα catalytic domain [3],0.92 ± 0.01
same,τ2,PKCα catalytic domain [3],0.49 ± 0.05 ns
"2: peptide substrate RVVGGSLRGAQ, SEQ ID NO:6, from PTP1B [Peptide 2]","Kinase activity toward the peptide substrate, in words",PKCα catalytic domain [1]; listed as p2,high kinase activity
NRFARKGDLRQKNV [Peptide S14D],"Binding strength of the peptide to the catalytic domain (steady-state FRET ratio), in words",PKCα catalytic domain [2],decreased affinity
"10: peptide substrate RRRRSIIFI, SEQ ID NO:22, Optimized PKA Sub.; Ala-substituted in FRET sensors [Peptide 10]","Kinase activity toward the peptide substrate, in words",PKCα catalytic domain [1],poor activity
same,Mol Fraction Bound,PKCα catalytic domain [3],0.16 ± 0.01
same,Mol Fraction Unbound,PKCα catalytic domain [3],0.84 ± 0.01
same,τ2,PKCα catalytic domain [3],0.83 ± 0.06 ns
"11: peptide substrate FKLKRKGTFKKFA, SEQ ID NO:35, Optimized PKCβ Sub.; Ala-substituted sensor form SEQ ID NO:23 [Peptide 11]","Kinase activity toward the peptide substrate, in words",PKCα catalytic domain [1],poor activity
same,Activity of the peptide FRET sensor for the same substrate,"PKCα catalytic domain [1]; 10 nm linker sensors, 50 μM MBP peptide",much lower activity
same,Mol Fraction Bound,PKCα catalytic domain [3],0.15 ± 0.01
same,Mol Fraction Unbound,PKCα catalytic domain [3],0.85 ± 0.01
same,τ2,PKCα catalytic domain [3],0.88 ± 0.06 ns
"Nc1ncnc2c1ncn2[C@@H]1O[C@H](COP(=O)(O)OP(=O)(O)O)[C@@H](O)[C@H]1O [ADP, reference compound]",Peptide interaction with the catalytic domain on addition of nucleotide (ΔFRET),PKCα catalytic domain [2],also occurred
"8: peptide substrate IVRKATLRRLL, SEQ ID NO:18, from EGF Receptor; Ala-substituted sensor form SEQ ID NO:17 [Peptide 8]","Binding strength of the peptide to the catalytic domain (steady-state FRET ratio), in words",PKCα catalytic domain [2],medium binding
same,Mol Fraction Bound,PKCα catalytic domain [3],0.11 ± 0.01
same,Mol Fraction Unbound,PKCα catalytic domain [3],0.89 ± 0.01
same,τ2,PKCα catalytic domain [3],0.66 ± 0.06 ns
"Nc1ncnc2c1ncn2[C@@H]1O[C@H](COP(=O)(O)OP(=O)(O)OP(=O)(O)O)[C@@H](O)[C@H]1O [ATP, reference compound]",Peptide interaction with the catalytic domain on addition of nucleotide (ΔFRET),PKCα catalytic domain [2],significant increase
"9: peptide substrate ARKRERTYSFGHHA, SEQ ID NO:20, Optimized AKT Sub. [Peptide 9]","Binding strength of the peptide to the catalytic domain (steady-state FRET ratio), in words",PKCα catalytic domain [2],medium binding
"1: peptide substrate ADKRRSVRIGA, SEQ ID NO:4, from Kit/SCRF; Ala-substituted in FRET sensors [Peptide 1]","Kinase activity toward the peptide substrate, in words",PKCα catalytic domain [1],high activity
"3: peptide substrate LAGGFSFKKNK, SEQ ID NO:8, from MARCKS (KLAGFSFKKNK) [Peptide 3]","Kinase activity toward the peptide substrate, in words",PKCα catalytic domain [1],high activity
NRFARKGALRQKNV [Peptide 14],"Binding strength of the peptide to the catalytic domain (steady-state FRET ratio), in words",PKCα catalytic domain [2],bound more strongly
same,Inhibition of ATP turnover of the catalytic domain for serine-containing peptide #14,PKCα catalytic domain [1]; equimolar competing peptide,significantly better at inhibiting catalytic activity
